{"source": "patent US20220033441A1", "about": "(LEIDOS, published 2022)", "data": [{"biological_target": "T1, Tag1-LAG3 protein (UniProt P18627 23-450, limits assumed)", "T1 construct": "Kit reagent (Cisbio); Tag1 is not identified", "T1 sequence (looked up)": "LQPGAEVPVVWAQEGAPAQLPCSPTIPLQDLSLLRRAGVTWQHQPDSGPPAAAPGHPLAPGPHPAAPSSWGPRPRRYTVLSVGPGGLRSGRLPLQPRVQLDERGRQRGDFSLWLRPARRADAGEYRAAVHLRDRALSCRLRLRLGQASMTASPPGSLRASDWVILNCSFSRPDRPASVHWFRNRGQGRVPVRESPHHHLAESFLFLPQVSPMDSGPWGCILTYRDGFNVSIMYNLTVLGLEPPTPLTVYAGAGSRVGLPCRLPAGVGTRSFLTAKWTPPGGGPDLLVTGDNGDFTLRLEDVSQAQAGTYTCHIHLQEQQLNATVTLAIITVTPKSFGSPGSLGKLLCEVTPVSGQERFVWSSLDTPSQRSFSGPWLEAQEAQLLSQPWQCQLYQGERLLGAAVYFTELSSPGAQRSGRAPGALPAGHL", "assay": "HTRF (TR-FRET) competition, inhibition of LAG3:MHC-II binding", "experimental": "Anti-Tag1-Tb and anti-Tag2-XL665 antibodies were added and incubated for one hour, then simultaneous measurement of both […] cryptate and 665 nm acceptor emissions were read.", "units": {"IC50": "µM"}, "values": [{"binder": "SAPWEPLHWPEDWWQGTGEW (positive peptide control in the LAG3/MHC-II assay)", "note": "[Peptide LG11]", "IC50": 18.4}, {"binder": "RVPAPVKEQVQKQYPNAGAI (also called Low Activity Peptide)", "note": "[Peptide 93]", "IC50": 63}, {"binder": "EDKAPWWQLDMEFEFRLDRV (20-mer peptide)", "note": "[peptide 68]", "IC50": 2.94}, {"binder": "RTDRYTLSYIWTSDEWMLFD (20-mer peptide)", "note": "[peptide 115]", "IC50": 0.154}, {"binder": "VFRMDWDEKEVRLYADDILL (20-mer peptide)", "note": "[peptide 146]", "IC50": 0.199}, {"binder": "RERGGDDFAQDDYYVTIFYR (20-mer peptide)", "note": "[peptide 11]", "IC50": 0.353}, {"binder": "QGSTSGWGFGAMYELTYDVY (20-mer peptide)", "note": "[peptide 16]", "IC50": 0.22}, {"binder": "LAGHYHYLTAGSQDIYEYND (20-mer peptide)", "note": "[peptide 62]", "IC50": 0.308}, {"binder": "GGVAIFLALFGGMVSSWEWD (20-mer peptide)", "note": "[peptide 141]", "IC50": 6.69}, {"binder": "SLPYSNIYIELDSGYWNSES (20-mer peptide)", "note": "[peptide 155]", "IC50": 0.13}]}, {"biological_target": "T2, human LAG3 (Human LAG3/FGL1 TR-FRET Binding Assay, BPS Bioscience) (human, UniProt P18627 23-450, limits assumed)", "T2 construct": "Kit reagent (BPS Bioscience); construct not described", "T2 sequence (looked up)": "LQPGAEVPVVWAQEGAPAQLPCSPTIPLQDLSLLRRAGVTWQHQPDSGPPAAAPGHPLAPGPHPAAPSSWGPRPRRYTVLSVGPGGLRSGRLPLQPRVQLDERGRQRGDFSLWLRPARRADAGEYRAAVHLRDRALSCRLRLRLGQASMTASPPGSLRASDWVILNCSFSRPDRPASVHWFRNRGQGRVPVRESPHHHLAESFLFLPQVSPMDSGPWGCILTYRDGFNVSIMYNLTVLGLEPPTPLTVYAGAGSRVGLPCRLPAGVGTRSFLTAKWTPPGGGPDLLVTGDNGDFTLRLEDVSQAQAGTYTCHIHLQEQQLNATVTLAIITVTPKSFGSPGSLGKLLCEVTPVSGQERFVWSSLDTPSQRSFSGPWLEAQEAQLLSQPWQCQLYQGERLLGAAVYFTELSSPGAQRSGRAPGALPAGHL", "assay": "TR-FRET competition, inhibition of LAG3:FGL1 binding", "experimental": "Reaction mixes were incubated 1 hr at RT before development. After development, plate was read in a Tecan M1000 TR-FRET instrument.", "units": {"IC50": "µM"}, "values": [{"binder": "ITMWGYDTDEDDNLVIYLTD (20-mer peptide)", "note": "[peptide 6]", "IC50": 2.6}, {"binder": "TVDADGDLYFDMEEGVLVFM (20-mer peptide)", "note": "[peptide 41]", "IC50": 9.2}, {"binder": "EDKAPWWQLDMEFEFRLDRV (20-mer peptide)", "note": "[peptide 68]", "IC50": "~21"}, {"binder": "AEFDHFDVGQTLDIASWDSY (20-mer peptide)", "note": "[peptide 69]", "IC50": 3.3}, {"binder": "RTDRYTLSYIWTSDEWMLFD (20-mer peptide)", "note": "[peptide 115]", "IC50": 9.1}, {"binder": "VFRMDWDEKEVRLYADDILL (20-mer peptide)", "note": "[peptide 146]", "IC50": 7.2}, {"binder": "EHNREQVLEVMYSFQVNDYF (20-mer peptide)", "note": "[peptide 154]", "IC50": 7.2}, {"binder": "HIQNWSYWLNQDMMNQQVWKS (peptide positive control in the LAG3/FGL1 assay)", "note": "[Peptide LG56]", "IC50": 14}]}]}
